According to article PMC6255212, “Coupled molecular dynamics mediate long- and short-range epistasis between mutations that affect stability and aggregation kinetics” (Proceedings of the National Academy of Sciences of the …, 2018):
Numbering of substitutions follows the chain as printed. Numbers in names are those of the source.

B1: Escherichia coli transketolase (TK) (Escherichia coli K-12; A282P/H192P/I365L) (protein)
chain: SSRKELANAIRALSMDAVQKAKSGHPGAPMGMADIAEVLWRDFLKHNPQNPSWADRDRFVLSNGHGSMLIYSLLHLTGYDLPMEELKNFRQLHSKTPGHPEVGYTAGVETTTGPLGQGIANAVGMAIAEKTLAAQFNRPGHDIVDHYTYAFMGDGCMMEGISHEVCSLAGTLKLGKLIAFYDDNGISIDGPVEGWFTDDTAMRFEAYGWHVIRDIDGHDAASIKRAVEEARAVTDKPSLLMCKTIIGFGSPNKAGTHDSHGAPLGDAEIALTREQLGWKYPPFEIPSEIYAQWDAKEAGQAKESAWNEKFAAYAKAYPQEAAEFTRRMKGEMPSDFDAKAKEFIAKLQANPAKIASRKASQNALEAFGPLLPEFLGGSADLAPSNLTLWSGSKAINEDAAGNYIHYGVREFGMTAIANGISLHGGFLPYTSTFLMFVEYARNAVRMAALMKQRQVMVYTHDSIGLGEDGPTHQPVEQVASLRVTPNMSTWRPCDQVESAVAWKYGVERQDGPTALILSRQNLAQQERTEEQLANIARGGYVLKDCAGQPELIFIATGSEVELAVAAYEKLTAEGVKARVVSMPSTDAFDKQDAAYRESVLPKAVTARVAVEAGIADYWYKYVGLNGAIVGMTTFGESAPAELLFEEFGFTVDNVVAKAKELL
notes: homodimer of 70- to 74-kDa monomers; holo enzyme with ThDP and Mg2+
B2: Escherichia coli transketolase (TK) (Escherichia coli K-12; A282P/G506A/H192P/I365L) (protein)
chain: B1 chain with G505A
notes: as for B1
B3: Escherichia coli transketolase (TK) (Escherichia coli K-12; A282P/G506A/H192P) (protein)
chain: B1 chain with L364I, G505A
notes: as for B1

Substrate: O=CCO
Assay: steady-state enzyme kinetics
Format: biochemical, Escherichia coli
Conditions: 50 mM Li-HPA (lithium beta-hydroxypyruvate, saturating), 4-80 mM glycolaldehyde

| Protein | Km | kcat |
| --- | --- | --- |
| B1 | 19.5(2.1) mM | 68.9(2.6) s-1 |
| B2 | 22.7(2.2) mM | 58.3(2.1) s-1 |
| B3 | 20.2(1.5) mM | 54.3(1.4) s-1 |
